Data on twelve substances can be found in publication PMC5395669.

The target in assay [1] is DnaK (added to the in vitro Co-IP reactions) (UniProt P0A6Y8). The assay can be described thus: Co-IP (amylose magnetic beads, Western blot with α-DnaK). Conditions: 1 µM RctB, 1 µM DnaJ, 2 µM DnaK, 100 µM ATP, buffer A pH 7.4, 4°C.
Assay [2] deals with MBP-RctB K312P (Vibrio cholerae). Briefly: AUC.
The target in assay [3] is MBP-RctB F316P (Vibrio cholerae). Briefly: AUC.
In assay [4] the target is MBP-RctB F311P (Vibrio cholerae). Briefly: AUC.
In assay [5] the target is RctB145–470 tryptic fragment (Vibrio cholerae). The assay can be described thus: AUC; sedimentation velocity, 50,000 rpm, 20°C; 20 mM Tris pH 8.0, 300 mM NaCl, 1 mM TCEP, 1 mM EDTA, 5 mM MgCl2; multiple concentrations (Fig. S4A).
Assay [6] addresses MBP-RctB S313P (Vibrio cholerae). The assay can be described thus: AUC.
Assay [7] deals with MBP-tagged RctB (wild type) (Vibrio cholerae (N16961 DNA as template)). Briefly: AUC.

On to “MBP-tagged RctB (wild type) H157A; E158A; H159A; G160A; L161A; N162A; T163A”, for which the ratio to parent in assay [1] amounted to 0.3.

In turn, MBP-RctB K312P (natural protein) displayed a stoichiometry N in assay [2] of 2.

MBP-RctB F316P (natural protein) registered a stoichiometry N in assay [3] of 2.

“MBP-tagged RctB (wild type) L129A; V130A; T131A; E132A; S133A; V134A; K135A”: the ratio to parent in assay [1] came out at 0.9.

Substance MBP-RctB F311P (natural protein) yielded a stoichiometry N in assay [4] of 2.

For “MBP-tagged RctB (wild type) S143A; K144A; L146A; Q148A; T149A”, the ratio to parent in assay [1] came to 0.8.

In assay [5], “RctB145–470 tryptic fragment (domain or fragment)” had a stoichiometry N of 2.

Regarding “MBP-tagged RctB (wild type) Q150A; V151A; N152A; Q153A; R154A; L155A; L156A”, the ratio to parent in assay [1] was found to be 0.4.

Substance MBP-RctB S313P (natural protein) returned a stoichiometry N in assay [6] of 2.

Turning to “MBP-tagged RctB (wild type) Q136A; N137A; E138A; K139A; Q140A; K141A; R142A”, in assay [1], the ratio to parent was 0.8.

For the substance “MBP-tagged RctB (wild type) P164A; P165A; M167A; K168A; D169A; E170A”, in assay [1], the ratio to parent amounted to 0.6.

In assay [7], “MBP-tagged RctB (wild type) (natural protein)” showed a stoichiometry N of 2.

The stoichiometry N is a count of units in the complex or per binding partner.
